The values below come from PMC6445466.

For orientation: Kd means the constant that tells how readily two partners part at equilibrium. Read a high Kd as lower affinity. For orientation: koff means a measure of how fast the partners let go of each other.

For test [1], the target named is human C1r, full-length enzyme (human) (UniProt P00736).
The target in test [2] is BXK32-C (BBK32-C E308K-Q319K-E324Q) (Borrelia burgdorferi strain B31) (UniProt O50835). Nature of the test: SPR; Biacore T200, 25°C; borrelial protein immobilised by amine coupling (CMD200M chip); C1 as analyte, two-fold dilution series 0 to 150 nM, 2 min association, 3 min dissociation; HBS-T (20 mM HEPES pH 7.3, 140 mM NaCl, 0.005% Tween-20) with 5 mM CaCl2; 1:1 kinetic fit; triplicate. A general note: In SPR one partner is held on a chip, and binding of the other changes the refractive index at the surface.

For test [3], the target named is BAD16-C (residues 204-352, B. afzelii strain PGau) (Borrelia afzelii strain PGau). Described as above.
The target in test [4] is BBK32(206-348) (residues 206-348, B. burgdorferi strain B31) (Borrelia burgdorferi strain B31) (UniProt O50835). Described as above.
Test [5] deals with BBK32-C (residues 206-354, B. burgdorferi strain B31) (Borrelia burgdorferi strain B31) (UniProt O50835). Described as above.

Sequence of human C1r, full-length enzyme (human) (P00736 18-705): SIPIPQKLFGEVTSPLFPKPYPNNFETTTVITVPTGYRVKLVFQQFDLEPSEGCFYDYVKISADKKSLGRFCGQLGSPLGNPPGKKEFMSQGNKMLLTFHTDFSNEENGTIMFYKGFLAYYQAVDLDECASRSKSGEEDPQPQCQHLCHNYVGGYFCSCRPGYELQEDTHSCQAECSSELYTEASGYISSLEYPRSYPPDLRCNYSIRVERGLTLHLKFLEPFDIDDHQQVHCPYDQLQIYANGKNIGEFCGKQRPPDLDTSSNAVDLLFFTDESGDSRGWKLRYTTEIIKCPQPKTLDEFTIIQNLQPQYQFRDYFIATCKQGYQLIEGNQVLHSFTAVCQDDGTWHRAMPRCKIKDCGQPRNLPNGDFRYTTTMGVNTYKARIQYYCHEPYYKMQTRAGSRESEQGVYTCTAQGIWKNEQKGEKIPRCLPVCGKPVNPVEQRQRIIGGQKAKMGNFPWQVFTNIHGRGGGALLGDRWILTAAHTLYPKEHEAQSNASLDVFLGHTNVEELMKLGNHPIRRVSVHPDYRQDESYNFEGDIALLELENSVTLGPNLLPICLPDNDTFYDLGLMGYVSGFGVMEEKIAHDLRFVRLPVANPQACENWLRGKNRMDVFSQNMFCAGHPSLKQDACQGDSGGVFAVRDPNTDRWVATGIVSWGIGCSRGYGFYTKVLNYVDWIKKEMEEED

Consider “BAD16-C (residues 204-352, B. afzelii strain PGau) (domain or fragment)”, for which, in test [1], the IC50 of C3b deposition, classical pathway-specific ELISA with normal human serum is 9.6 nM; the IC50 of MAC deposition, classical pathway-specific ELISA with normal human serum is 5.9 nM; the IC50 of classical pathway hemolysis of sensitized sheep red blood cells by human serum was 55 nM.

With “human C1 complex (from UniProt P02745 23-245; P02746 28-253; P02747 29-245)”, the Kd was 4.7 nM in test [2], 5.4 nM in test [3], 5.6 nM in test [4] and 6 nM in test [5]. The koff in test [2] was found to be 3.8e-05 s⁻¹; in test [4], 0.00054 s⁻¹; in test [5], 0.0005 s⁻¹.
